In paper PMC5714123, “The SMAD3 transcription factor binds complex RNA structures with high affinity”:

Key:
SMAD3 MH1 [1] = target: T1, SMAD3 MH1 (Homo sapiens, UniProt P84022 1-132); experiment: EMSA; Hill 3.1; EMSA: 25 mM Tris-HCl (pH not given for binding buffer; RNA stock pH 7.5), 115 mM KCl, 1 mM MgCl2, 1 mM DTT, 20 ng/ul poly I:C, 0.1 mg/ml BSA, 10% glycerol, on ice 2 h; 0.5x TBE gel at 4 C; settings: protein: recombinant; tags: 6xHis-SUMO cleaved; label: 5' 32P; hairpin
SMAD3 MH1 [2] = target: T1, SMAD3 MH1; experiment: EMSA; Hill 3.4; EMSA: 25 mM Tris-HCl (pH not given for binding buffer; RNA stock pH 7.5), 115 mM KCl, 1 mM MgCl2, 1 mM DTT, 20 ng/ul poly I:C, 0.1 mg/ml BSA, 10% glycerol, on ice 2 h; 0.5x TBE gel at 4 C; settings: protein: recombinant; tags: 6xHis-SUMO cleaved; label: 5' 32P; hairpin
SMAD3 MH1 [3] = target: T1, SMAD3 MH1; experiment: EMSA; Hill 1.6; EMSA: 25 mM Tris-HCl (pH not given for binding buffer; RNA stock pH 7.5), 115 mM KCl, 1 mM MgCl2, 1 mM DTT, 20 ng/ul poly I:C, 0.1 mg/ml BSA, 10% glycerol, on ice 2 h; 0.5x TBE gel at 4 C; settings: protein: recombinant; tags: 6xHis-SUMO cleaved; label: 5' 32P; hairpin
SMAD3 MH1 [4] = target: T1, SMAD3 MH1; experiment: EMSA; Hill 2.1; EMSA: 25 mM Tris-HCl (pH not given for binding buffer; RNA stock pH 7.5), 115 mM KCl, 1 mM MgCl2, 1 mM DTT, 20 ng/ul poly I:C, 0.1 mg/ml BSA, 10% glycerol, on ice 2 h; 0.5x TBE gel at 4 C; settings: protein: recombinant; tags: 6xHis-SUMO cleaved; label: 5' 32P; hairpin with 6x3 internal loop
SMAD3 MH1 [5] = target: T1, SMAD3 MH1; experiment: EMSA; Hill 1.8; EMSA: 25 mM Tris-HCl (pH not given for binding buffer; RNA stock pH 7.5), 115 mM KCl, 1 mM MgCl2, 1 mM DTT, 20 ng/ul poly I:C, 0.1 mg/ml BSA, 10% glycerol, on ice 2 h; 0.5x TBE gel at 4 C; settings: protein: recombinant, tags: 6xHis-SUMO cleaved
SMAD3 MH1 [6] = target: T1, SMAD3 MH1; experiment: EMSA; Hill 3.2; EMSA: 25 mM Tris-HCl (pH not given for binding buffer; RNA stock pH 7.5), 115 mM KCl, 1 mM MgCl2, 1 mM DTT, 20 ng/ul poly I:C, 0.1 mg/ml BSA, 10% glycerol, on ice 2 h; 0.5x TBE gel at 4 C; settings: protein: recombinant; tags: 6xHis-SUMO cleaved; label: 5' 32P; hairpin with single-stranded flanks
SMAD3 MH1 [7] = target: T1, SMAD3 MH1; experiment: EMSA; Hill 2.7; EMSA: 25 mM Tris-HCl (pH not given for binding buffer; RNA stock pH 7.5), 115 mM KCl, 1 mM MgCl2, 1 mM DTT, 20 ng/ul poly I:C, 0.1 mg/ml BSA, 10% glycerol, on ice 2 h; 0.5x TBE gel at 4 C; settings: protein: recombinant; tags: 6xHis-SUMO cleaved; label: 5' 32P; hairpin
SMAD3 MH1 [8] = target: T1, SMAD3 MH1; experiment: EMSA; Hill 3.0; EMSA: 25 mM Tris-HCl (pH not given for binding buffer; RNA stock pH 7.5), 115 mM KCl, 1 mM MgCl2, 1 mM DTT, 20 ng/ul poly I:C, 0.1 mg/ml BSA, 10% glycerol, on ice 2 h; 0.5x TBE gel at 4 C; settings: protein: recombinant; tags: 6xHis-SUMO cleaved; label: 5' 32P; hairpin
SMAD3 MH1 [9] = target: T1, SMAD3 MH1; experiment: EMSA; Hill 3.6; EMSA: 25 mM Tris-HCl (pH not given for binding buffer; RNA stock pH 7.5), 115 mM KCl, 1 mM MgCl2, 1 mM DTT, 20 ng/ul poly I:C, 0.1 mg/ml BSA, 10% glycerol, on ice 2 h; 0.5x TBE gel at 4 C; settings: protein: recombinant; tags: 6xHis-SUMO cleaved; label: 5' 32P (EMSA); hairpin
SMAD3 MH1 [10] = target: T1, SMAD3 MH1; experiment: EMSA; Hill 1.9; EMSA: 25 mM Tris-HCl (pH not given for binding buffer; RNA stock pH 7.5), 115 mM KCl, 1 mM MgCl2, 1 mM DTT, 20 ng/ul poly I:C, 0.1 mg/ml BSA, 10% glycerol, on ice 2 h; 0.5x TBE gel at 4 C; settings: protein: recombinant, tags: 6xHis-SUMO cleaved
SMAD3 MH1 [11] = target: T1, SMAD3 MH1; experiment: EMSA; Hill 2.2; EMSA: 25 mM Tris-HCl (pH not given for binding buffer; RNA stock pH 7.5), 115 mM KCl, 1 mM MgCl2, 1 mM DTT, 20 ng/ul poly I:C, 0.1 mg/ml BSA, 10% glycerol, on ice 2 h; 0.5x TBE gel at 4 C; settings: protein: recombinant; tags: 6xHis-SUMO cleaved; label: 5' 32P; hairpin with 1x5 internal loop
SMAD3 MH1 [12] = target: T1, SMAD3 MH1; experiment: EMSA; Hill 1.7; EMSA: 25 mM Tris-HCl (pH not given for binding buffer; RNA stock pH 7.5), 115 mM KCl, 1 mM MgCl2, 1 mM DTT, 20 ng/ul poly I:C, 0.1 mg/ml BSA, 10% glycerol, on ice 2 h; 0.5x TBE gel at 4 C; settings: protein: recombinant, tags: 6xHis-SUMO cleaved
SMAD3 MH1 [13] = target: T1, SMAD3 MH1; experiment: EMSA; Hill 2.5; EMSA: 25 mM Tris-HCl (pH not given for binding buffer; RNA stock pH 7.5), 115 mM KCl, 1 mM MgCl2, 1 mM DTT, 20 ng/ul poly I:C, 0.1 mg/ml BSA, 10% glycerol, on ice 2 h; 0.5x TBE gel at 4 C; settings: protein: recombinant; tags: 6xHis-SUMO cleaved; label: 5' 32P; hairpin with 2x3 internal loop
SMAD3 MH1 [14] = target: T1, SMAD3 MH1; experiment: EMSA; Hill 1.1; EMSA: 25 mM Tris-HCl (pH not given for binding buffer; RNA stock pH 7.5), 115 mM KCl, 1 mM MgCl2, 1 mM DTT, 20 ng/ul poly I:C, 0.1 mg/ml BSA, 10% glycerol, on ice 2 h; 0.5x TBE gel at 4 C; settings: protein: recombinant; tags: 6xHis-SUMO cleaved; label: 5' 32P; structured, multi-loop
[15] = label: 5' 32P, hairpin with 6x3 internal loop

T1 sequence (P84022 1-132): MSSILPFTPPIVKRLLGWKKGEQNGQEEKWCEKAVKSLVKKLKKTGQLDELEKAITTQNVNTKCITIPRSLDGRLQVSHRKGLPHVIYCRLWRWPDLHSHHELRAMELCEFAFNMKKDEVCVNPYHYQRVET

Binder: GGACGCUUAUCAGACUGAUGUUGUUCGCAACACCAGUCGAUGGGCGUCC (structured_RNA) [1a hsa-miR-21 central stem]
- Kd (SMAD3 MH1 [1]): 2500 ± 100 nM

Binder: GGACGCUUAUAAAACUGAUGUUGUUCGCAACACCAGUUUAUGGGCGUCC (structured_RNA) [1b hsa-miR-21 central stem dSBE]
- Kd (SMAD3 MH1 [2]): 2700 ± 100 nM

Binder: GGGUCUCGUAUUGCAGAAAUAAAUCAAGCGAGAC (structured_RNA) [17c D4a truncation 3]
- Kd (SMAD3 MH1 [3]): 1500 ± 300 nM

B1: 17d D4a isolated terminal loop (structured_RNA)
RNA: GGGUCUCGUAUUGCAGAAAUGACACAUCUUGCCCGUAACCAAUCGGGUAAGGUGUGUCAAAUCAAUGCGAGAC
- Kd (SMAD3 MH1 [4]): 570 ± 20 nM

Binder: GAUACUUGAAACUGUAAGGUUGGCGUAUC (structured_RNA) [20 NF-kB aptamer]
- Kd (SMAD3 MH1 [5]; label: 5' 32P, hairpin with 4x3 internal loop): 4400 ± 600 nM

Binder: GGACGUACUGCAGACAGUGGGCGUUCGCGCGUACGUCUGUGGGUACGUCC (structured_RNA) [6a hsa-miR-509 central stem]
- Kd (SMAD3 MH1 [5]; label: 5' 32P, hairpin): 2100 ± 300 nM

B2: 10 hsa-miR-21 extended (structured_RNA)
RNA: GGGUGUUUUGCCUACCAUCGUGACAUCUCCAUGGCUGUACCACCUUGUCGGGUAGCUUAUCAGACUGAUGUUGACUGUUGAAUCUCAUGGCAACACCAGUCGAUGGGCUGUCUGACAUUUUGGUAUCUUUCAUCUGACCAUCCAUAUCCAAUGUUCUCAG
- Kd (SMAD3 MH1 [6]): 700 ± 60 nM

B3: 9c cel-miR-84 stem loop (structured_RNA)
RNA: GGCAUCUGAGGUAGUAUGUAAUAUUGUAGACUGUCUAUAAUGUCCACAAUGUUUCAACUAACUCGGCUGCC
- Kd (SMAD3 MH1 [7]): 1600 ± 100 nM

Binder: GGGUCUCGUAUUGCAGAAAUGACUUCGGUCAAAUCAAGAGAGAC (structured_RNA) [17b D4a truncation 2]
- Kd (SMAD3 MH1 [5]; [15]): 480 ± 80 nM

B4: 18 ai5-gamma D3 (structured_RNA)
RNA: GGGUAUAAAAAGCUAAUGCCAUAUUGUAAUGAUAUGGAUAAGAAUUAUUAUUCUAAAGAUGAAAAUCUGCUAACUUAUACUG
- Kd (SMAD3 MH1 [5]; label: 5' 32P (EMSA), four-way junction with bulged stem): 190 ± 30 nM

Binder: GGACGUACUGCCAGAAGUGGGCGUUCGCGCGUACUCUGGUGGGUACGUCC (structured_RNA) [6b hsa-miR-509 central stem dSBE]
- Kd (SMAD3 MH1 [8]): 3000 ± 300 nM

B5: 16 30-bp hairpin (structured_RNA)
RNA: GGAUCGAUCGAUCGAUCGGCAUCGAUCGGCUUCGGCCGAUCGAUGCCGAUCGAUCGAUCGAUCC
- Kd (SMAD3 MH1 [9]): 4000 ± 200 nM

B6: 19 dsDNA with 1 SBE (dsDNA)
DNA 1: GTATGTCTCAGATGAA
DNA 2: TTCATCTGAGACATAC
- Kd (SMAD3 MH1 [10]; label: 5' 32P on one strand, blunt): 190 ± 20 nM

B7: 17e D4a isolated apical loop (structured_RNA)
RNA: GGGUCUCGUAUUGCAGAUGACACAUCUGCCGUAACCAAUCGGGUAAAAGGUGUGUCAUCUGCAAUGCGAGAC
- Kd (SMAD3 MH1 [11]): 400 ± 10 nM

B8: 17 Group II intron D4A (structured_RNA)
RNA: GGGGUCUCGUAUUGCAGAAAUGACAACAUCUGCCGUAACCAAUCGGGUAAAAGGUGGUCAAAUCAAGCGAGAC
- Kd (SMAD3 MH1 [12]; label: 5' 32P (EMSA), hairpin with 1x5 and 6x3 internal loops): 190 ± 10 nM

Binder: GGUCUGGGCGCAGCGCAAGCUGACGGUACAGGCC (structured_RNA) [21 RRE]
- Kd (SMAD3 MH1 [13]): 3000 ± 300 nM

Binder: GGACGUGAGGUAGUAUGUAAGCGUUCGCGCUUUCAACUAACUCGCGUCC (structured_RNA) [9a cel-miR-84 central stem]
- Kd (SMAD3 MH1 [7]): 2900 ± 100 nM

B9: 3c hsa-miR-199a-1 stem loop (structured_RNA)
RNA: GGCCAACCCAGUGUUCAGACUACCUGUUCAGGAGGCUCUCAAUGUGUACAGUAGUCUGCACAUUGGUUAGGCC
- Kd (SMAD3 MH1 [10]; label: 5' 32P, hairpin): 1250 ± 50 nM

B10: 11 VAI (structured_RNA)
RNA: GGGCACUCUUCCGUGGUCUGGUGGAUAAAUUCGCAAGGGUAUCAUGGCGGACGACCGGGGUUCGAACCCCGGAUCCGGCCGUCCGCCGUGAUCCAUGCGGUUACCGCCCGCGUGUCGAACCCAGGUGUGCGACGUCAGACAACGGGGGAGCGCUC
- Kd (SMAD3 MH1 [14]): 110 ± 20 nM

B11: 17a D4a truncation 1 (structured_RNA)
RNA: GGGUCUCGUAUUGCAGAAAUGACAACAUCUUUCGAGGUGGUCAAAUCAAGCGAGAC
- Kd (SMAD3 MH1 [12]; [15]): 340 ± 70 nM
